Molecular target: FBXW8 (UniProt Q8N3Y1)
Test: HA IP, V5 immunoblot
Conditions: reference: HA-cyclin D1 wild type; sites T286

binding against the reference: weaker
Substance: cyclin D1 (from UniProt P24385) HA-cyclin D1 T286A
